B1: CM0126 (FZD Diabody-Fc-LRP Diabody; paratopes 5016; 2539, 2542) (bispecific antibody)
chain 1: MNLLLILTFVAAAVAEFEVQLVESGGGLVQPGGSLRLSCAASGFNIHSSSIHWVRQAPGKGLEWVAATYSSFGSITYADSVKGRFTISADTSKNTAYLQMNSLRAEDTAVYYCARYHHPFGYALDYWGQGTLVTVSSGGGGSDIQMTQSPSSLSASVGDRVTITCRASQSVSSAVAWYQQKPGKAPKLLIYSASSLYSGVPSRFSGSRSGTDFTLTISSLQPEDFATYYCQQGVYLFTFGQGTKVEIKLEDKTHTKVEPKSSDKTHNCPPCPAPELLGGPSVFLFPPKPKDTLMISRTPEVTCVVVDVSHEDPEVKFNWYVDGVEVHNAKTKPREEQYNSTYRVVSVLTVLHQDWLNGKEYKCKVSNKALPAPIEKTISKAKGQPREPQVYTLPPIRELMTSNQVSLSCAVKGFYPSDIAVEWESNGQPENNYKTTPPVLDSDGSFFLVSKLTVDKSRWQQGNVFSCSVMHEALHNHYTQKSLSLSPGKSGSETPGTSESATPESGGGEVQLVESGGGLVQPGGSLRLSCAASGFNISSYYIHWVRQAPGKGLEWVASIYSSYGYTSYADSVKGRFTISADTSKNTAYLQMNSLRAEDTAVYYCARTVRGSKKPYFSGWAMDYWGQGTLVTVSSGGGGSDIQMTQSPSSLSASVGDRVTITCRASQSVSSAVAWYQQKPGKAPKLLIYSASSLYSGVPSRFSGSRSGTDFTLTISSLQPEDFATYYCQQYSWGPFTFGQGTKVEIK
chain 2: MNLLLILTFVAAAVAEFEVQLVESGGGLVQPGGSLRLSCAASGFNIHSSSIHWVRQAPGKGLEWVAATYSSFGSITYADSVKGRFTISADTSKNTAYLQMNSLRAEDTAVYYCARYHHPFGYALDYWGQGTLVTVSSGGGGSDIQMTQSPSSLSASVGDRVTITCRASQSVSSAVAWYQQKPGKAPKLLIYSASSLYSGVPSRFSGSRSGTDFTLTISSLQPEDFATYYCQQGVYLFTFGQGTKVEIKLEDKTHTKVEPKTSDKTHTCPPCPAPELLGGPSVFLFPPKPKDTLMISRTPEVTCVVVDVSHEDPEVKFNWYVDGVEVHNAKTKPREEQYNSTYRVVSVLTVLHQDWLNGKEYKCKVSNKALPAPIEKTISKAKGQPREPMVFDLPPSREEMTKNQVSLWCMVKGFYPSDIAVEWESNGQPENNYKTTPPVLDSDGSFFLYSKLTVDKSRWQQGNVFSCSVMHEALHNHYTQKSLSLSPGKSGSETPGTSESATPESGGGEVQLVESGGGLVQPGGSLRLSCAASGFNISYSSIHWVRQAPGKGLEWVAYISSYYGYTYYADSVKGRFTISADTSKNTAYLQMNSLRAEDTAVYYCARAHYFPWAGAMDYWGQGTLVTVSSGGGGSDIQMTQSPSSLSASVGDRVTITCRASQSVSSAVAWYQQKPGKAPKLLIYSASSLYSGVPSRFSGSRSGTDFTLTISSLQPEDFATYYCQQYYWPITFGQGTKVEIK
B2: CT0001 (FZD IgG-LRP Diabody; paratopes 5016; 2539, 2542) (bispecific antibody)
heavy 1: EVQLVESGGGLVQPGGSLRLSCAASGFNIHSSSIHWVRQAPGKGLEWVAATYSSFGSITYADSVKGRFTISADTSKNTAYLQMNSLRAEDTAVYYCARYHHPFGYALDYWGQGTLVTVSSASTKGPSVFPLAPSSKSTSGGTAALGCLVKDYFPEPVTVSWNSGALTSGVHTFPAVLQSSGLYSLSSVVTVPSSSLGTQTYICNVNHKPSNTKVDKKVEPKSCDKTHTCPPCPAPELLGGPSVFLFPPKPKDTLMISRTPEVTCVVVDVSHEDPEVKFNWYVDGVEVHNAKTKPREEQYNSTYRVVSVLTVLHQDWLNGKEYKCKVSNKALPAPIEKTISKAKGQPREPQVYTLPPIRELMTSNQVSLSCAVKGFYPSDIAVEWESNGQPENNYKTTPPVLDSDGSFFLVSKLTVDKSRWQQGNVFSCSVMHEALHNHYTQKSLSLSPGKSGSETPGTSESATPESGGGEVQLVESGGGLVQPGGSLRLSCAASGFNISSYYIHWVRQAPGKGLEWVASIYSSYGYTSYADSVKGRFTISADTSKNTAYLQMNSLRAEDTAVYYCARTVRGSKKPYFSGWAMDYWGQGTLVTVSSGGGGSDIQMTQSPSSLSASVGDRVTITCRASQSVSSAVAWYQQKPGKAPKLLIYSASSLYSGVPSRFSGSRSGTDFTLTISSLQPEDFATYYCQQYSWGPFTFGQGTKVEIK
heavy 2: EVQLVESGGGLVQPGGSLRLSCAASGFNIHSSSIHWVRQAPGKGLEWVAATYSSFGSITYADSVKGRFTISADTSKNTAYLQMNSLRAEDTAVYYCARYHHPFGYALDYWGQGTLVTVSSASTKGPSVFPLAPSSKSTSGGTAALGCLVKDYFPEPVTVSWNSGALTSGVHTFPAVLQSSGLYSLSSVVTVPSSSLGTQTYICNVNHKPSNTKVDKKVEPKSCDKTHTCPPCPAPELLGGPSVFLFPPKPKDTLMISRTPEVTCVVVDVSHEDPEVKFNWYVDGVEVHNAKTKPREEQYNSTYRVVSVLTVLHQDWLNGKEYKCKVSNKALPAPIEKTISKAKGQPREPMVFDLPPSREEMTKNQVSLWCMVKGFYPSDIAVEWESNGQPENNYKTTPPVLDSDGSFFLYSKLTVDKSRWQQGNVFSCSVMHEALHNHYTQKSLSLSPGKSGSETPGTSESATPESGGGEVQLVESGGGLVQPGGSLRLSCAASGFNISYSSIHWVRQAPGKGLEWVAYISSYYGYTYYADSVKGRFTISADTSKNTAYLQMNSLRAEDTAVYYCARAHYFPWAGAMDYWGQGTLVTVSSGGGGSDIQMTQSPSSLSASVGDRVTITCRASQSVSSAVAWYQQKPGKAPKLLIYSASSLYSGVPSRFSGSRSGTDFTLTISSLQPEDFATYYCQQYYWPITFGQGTKVEIK
light: DIQMTQSPSSLSASVGDRVTITCRASQSVSSAVAWYQQKPGKAPKLLIYSASSLYSGVPSRFSGSRSGTDFTLTISSLQPEDFATYYCQQGVYLFTFGQGTKVEIKRTVAAPSVFIFPPSDEQLKSGTASVVCLLNNFYPREAKVQWKVDNALQSGNSQESVTEQDSKDSTYSLSSTLTLSKADYEKHKVYACEVTHQGLSSPVTKSFNRGEC
B3: ANT-1 (LRP Diabody-Fc-FZD Fab; paratopes 2540, 2542; 5016) (bispecific antibody)
heavy 1: MNLLLILTFVAAAVAEFEVQLVESGGGLVQPGGSLRLSCAASGFNISSYYIHWVRQAPGKGLEWVASIYSSYGYTSYADSVKGRFTISADTSKNTAYLQMNSLRAEDTAVYYCARTVRGSKKPYFSGWAMDYWGQGTLVTVSSGGGGSDIQMTQSPSSLSASVGDRVTITCRASQSVSSAVAWYQQKPGKAPKLLIYSASSLYSGVPSRFSGSRSGTDFTLTISSLQPEDFATYYCQQYYFLITFGQGTKVEIKLEDKTHTKVEPKSSDKTHNCPPCPAPELLGGPSVFLFPPKPKDTLMISRTPEVTCVVVDVSHEDPEVKFNWYVDGVEVHNAKTKPREEQYNSTYRVVSVLTVLHQDWLNGKEYKCKVSNKALPAPIEKTISKAKGQPREPQVYTLPPIRELMTSNQVSLSCAVKGFYPSDIAVEWESNGQPENNYKTTPPVLDSDGSFFLVSKLTVDKSRWQQGNVFSCSVMHEALHNHYTQKSLSLSPGKSGSETPGTSESATPESGGGEVQLVESGGGLVQPGGSLRLSCAASGFNIHSSSIHWVRQAPGKGLEWVAATYSSFGSITYADSVKGRFTISADTSKNTAYLQMNSLRAEDTAVYYCARYHHPFGYALDYWGQGTLVTVSSASTKGPSVFPLAPSSKSTSGGTAALGCLVKDYFPEPVTVSWNSGALTSGVHTFPAVLQSSGLYSLSSVVTVPSSSLGTQTYICNVNHKPSNTKVDKKVEPKSCDKTHT
heavy 2: MNLLLILTFVAAAVAEFEVQLVESGGGLVQPGGSLRLSCAASGFNISYSSIHWVRQAPGKGLEWVASISPYYGYTYYADSVKGRFTISADTSKNTAYLQMNSLRAEDTAVYYCARSSYFPWFSAMDYWGQGTLVTVSSGGGGSDIQMTQSPSSLSASVGDRVTITCRASQSVSSAVAWYQQKPGKAPKLLIYSASSLYSGVPSRFSGSRSGTDFTLTISSLQPEDFATYYCQQYYWPITFGQGTKVEIKLEDKTHTKVEPKTSDKTHTCPPCPAPELLGGPSVFLFPPKPKDTLMISRTPEVTCVVVDVSHEDPEVKFNWYVDGVEVHNAKTKPREEQYNSTYRVVSVLTVLHQDWLNGKEYKCKVSNKALPAPIEKTISKAKGQPREPMVFDLPPSREEMTKNQVSLWCMVKGFYPSDIAVEWESNGQPENNYKTTPPVLDSDGSFFLYSKLTVDKSRWQQGNVFSCSVMHEALHNHYTQKSLSLSPGKSGSETPGTSESATPESGGGEVQLVESGGGLVQPGGSLRLSCAASGFNIHSSSIHWVRQAPGKGLEWVAATYSSFGSITYADSVKGRFTISADTSKNTAYLQMNSLRAEDTAVYYCARYHHPFGYALDYWGQGTLVTVSSASTKGPSVFPLAPSSKSTSGGTAALGCLVKDYFPEPVTVSWNSGALTSGVHTFPAVLQSSGLYSLSSVVTVPSSSLGTQTYICNVNHKPSNTKVDKKVEPKSCDKTHT
light: DIQMTQSPSSLSASVGDRVTITCRASQSVSSAVAWYQQKPGKAPKLLIYSASSLYSGVPSRFSGSRSGTDFTLTISSLQPEDFATYYCQQGVYLFTFGQGTKVEIKRTVAAPSVFIFPPSDEQLKSGTASVVCLLNNFYPREAKVQWKVDNALQSGNSQESVTEQDSKDSTYSLSSTLTLSKADYEKHKVYACEVTHQGLSSPVTKSFNRGEC
B4: CT0003 (Table 5: FZD Diabody-Fc-LRP scFv; paratopes 5016; 2539, 2542) (bispecific antibody)
chain 1: MNLLLILTFVAAAVAEFEVQLVESGGGLVQPGGSLRLSCAASGFNISSYYIHWVRQAPGKGLEWVASIYSSYGYTSYADSVKGRFTISADTSKNTAYLQMNSLRAEDTAVYYCARTVRGSKKPYFSGWAMDYWGQGTLVTVSSGGGGSDIQMTQSPSSLSASVGDRVTITCRASQSVSSAVAWYQQKPGKAPKLLIYSASSLYSGVPSRFSGSRSGTDFTLTISSLQPEDFATYYCQQYSWGPFTFGQGTKVEIKLEDKTHTKVEPKSSDKTHNCPPCPAPELLGGPSVFLFPPKPKDTLMISRTPEVTCVVVDVSHEDPEVKFNWYVDGVEVHNAKTKPREEQYNSTYRVVSVLTVLHQDWLNGKEYKCKVSNKALPAPIEKTISKAKGQPREPQVYTLPPIRELMTSNQVSLSCAVKGFYPSDIAVEWESNGQPENNYKTTPPVLDSDGSFFLVSKLTVDKSRWQQGNVFSCSVMHEALHNHYTQKSLSLSPGKSGSETPGTSESATPESGGGEVQLVESGGGLVQPGGSLRLSCAASGFNIHSSSIHWVRQAPGKGLEWVAATYSSFGSITYADSVKGRFTISADTSKNTAYLQMNSLRAEDTAVYYCARYHHPFGYALDYWGQGTLVTVSSGTTAASGSSGGSSSGADIQMTQSPSSLSASVGDRVTITCRASQSVSSAVAWYQQKPGKAPKLLIYSASSLYSGVPSRFSGSRSGTDFTLTISSLQPEDFATYYCQQGVYLFTFGQGTKVEIK
chain 2: MNLLLILTFVAAAVAEFEVQLVESGGGLVQPGGSLRLSCAASGFNISYSSIHWVRQAPGKGLEWVAYISSYYGYTYYADSVKGRFTISADTSKNTAYLQMNSLRAEDTAVYYCARAHYFPWAGAMDYWGQGTLVTVSSGGGGDIQMTQSPSSLSASVGDRVTITCRASQSVSSAVAWYQQKPGKAPKLLIYSASSLYSGVPSRFSGSRSGTDFTLTISSLQPEDFATYYCQQYYWPITFGQGTKVEIKLEDKTHTKVEPKTSDKTHTCPPCPAPELLGGPSVFLFPPKPKDTLMISRTPEVTCVVVDVSHEDPEVKFNWYVDGVEVHNAKTKPREEQYNSTYRVVSVLTVLHQDWLNGKEYKCKVSNKALPAPIEKTISKAKGQPREPMVFDLPPSREEMTKNQVSLWCMVKGFYPSDIAVEWESNGQPENNYKTTPPVLDSDGSFFLYSKLTVDKSRWQQGNVFSCSVMHEALHNHYTQKSLSLSPGKSGSETPGTSESATPESGGGEVQLVESGGGLVQPGGSLRLSCAASGFNIHSSSIHWVRQAPGKGLEWVAATYSSFGSITYADSVKGRFTISADTSKNTAYLQMNSLRAEDTAVYYCARYHHPFGYALDYWGQGTLVTVSSGTTAASGSSGGSSSGADIQMTQSPSSLSASVGDRVTITCRASQSVSSAVAWYQQKPGKAPKLLIYSASSLYSGVPSRFSGSRSGTDFTLTISSLQPEDFATYYCQQGVYLFTFGQGTKVEIK

What follows are binders tested against FZD1/2/4/5/7/8 (assay: cell-based or functional assay).
B1 was tested, and the TOPFLASH % Wnt Maxima was 52 % Wnt Maxima and the TOPFLASH EC50 was 0.3 nM.
In the case of B2, the TOPFLASH % Wnt Maxima is reported as 57 % Wnt Maxima and the TOPFLASH EC50 is reported as 0.3 nM.
B3 showed a TOPFLASH % Wnt Maxima of 49 % Wnt Maxima, a TOPFLASH EC50 of 0.7 nM and a TOPFLASH Maximal Signal (% Wnt3a maxima) (% Wnt3a maxima) of 50.
In the case of B4, the TOPFLASH % Wnt Maxima is reported as 42 % Wnt Maxima and the TOPFLASH EC50 is reported as 0.4 nM.
